The source of these data is PMC8575462, “PP2A/B55α substrate recruitment as defined by the retinoblastoma-related protein p107” (eLife, 2021).

B1: Myc-B55α wild type [not stated] / Flag-pRB [not stated] (parent complex)
chain 1: MAGAGGGNDIQWCFSQVKGAVDDDVAEADIISTVEFNHSGELLATGDKGGRVVIFQQEQENKIQSHSRGEYNVYSTFQSHEPEFDYLKSLEIEEKINKIRWLPQKNAAQFLLSTNDKTIKLWKISERDKRPEGYNLKEEDGRYRDPTTVTTLRVPVFRPMDLMVEASPRRIFANAHTYHINSISINSDYETYLSADDLRINLWHLEITDRSFNIVDIKPANMEELTEVITAAEFHPNSCNTFVYSSSKGTIRLCDMRASALCDRHSKLFEEPEDPSNRSFFSEIISSISDVKFSHSGRYMMTRDYLSVKIWDLNMENRPVETYQVHEYLRSKLCSLYENDCIFDKFECCWNGSDSVVMTGSYNNFFRMFDRNTKRDITLEASRENNKPRTVLKPRKVCASGKRKKDEISVDSLDFNKKILHTAWHPKENIIAVATTNNLYIFQDKVN
chain 2: MPPKTPRKTAATAAAAAAEPPAPPPPPPPEEDPEQDSGPEDLPLVRLEFEETEEPDFTALCQKLKIPDHVRERAWLTWEKVSSVDGVLGGYIQKKKELWGICIFIAAVDLDEMSFTFTELQKNIEISVHKFFNLLKEIDTSTKVDNAMSRLLKKYDVLFALFSKLERTCELIYLTQPSSSISTEINSALVLKVSWITFLLAKGEVLQMEDDLVISFQLMLCVLDYFIKLSPPMLLKEPYKTAVIPINGSPRTPRRGQNRSARIAKQLENDTRIIEVLCKEHECNIDEVKNVYFKNFIPFMNSLGLVTSNGLPEVENLSKRYEEIYLKNKDLDARLFLDHDKTLQTDSIDSFETQRTPRKSNLDEEVNVIPPHTPVRTVMNTIQQLMMILNSASDQPSENLISYFNNCTVNPKESILKRVKDIGYIFKEKFAKAVGQGCVEIGSQRYKLGVRLYYRVMESMLKSEEERLSIQNFSKLLNDNIFHMSLLACALEVVMATYSRSTSQNLDSGTDLSFPWILNVLNLKAFDFYKVIESFIKAEGNLTREMIKHLERCEHRIMESLAWLSDSPLFDLIKQSKDREGPTDHLESACPLNLPLQNNHTAADMYLSPVRSPKKKGSTTRVNSTANAETQATSAFQTQKPLKSTSLSLFYKKVYRLAYLRLNTLCERLLSEHPELEHIIWTLFQHTLQNEYELMRDRHLDQIMMCSMYGICKVKNIDLKFKIIVTAYKDLPHAVQETFKRVLIKEEEYDSIIVFYNSVFMQRLKTNILQYASTRPPTLSPIPHIPRSPYKFPSSPLRIPGGNIYISPLKSPYKISEGLPTPTKMTPRSRILVSIGESFGTSEKFQKINQMVCNSDRVLKRSAEGSNPPKPLKKLRFDIEGSDEADGSKHLPGESKFQQKLAEMTSTRTRMQKQKMNDSMDTSNKEEK

This test covers variants of B1. Description: co-immunoprecipitation (anti-Myc IP), western blot quantitation; 293T cells, co-transfected; read off a plot. Background: Immunoblotting shows a protein as a band on a membrane.
With chain 1 MAGAGGGNDIQWCFSQVKGAVDDDVAEADIISTVEFNHSGELLATGDKGGRVVIFQQEQENKIQSHSRGEYNVYSTFQSHEPEFDYLKSLEIEEKINKIRWLPQKNAAQFLLSTNDKTIKLWKISERDKRPEGYNLKEEDGRYRDPTTVTTLRVPVFRPMDLMVEASPRRIFANAHTYHINSISINSDYETYLSADDLRINLWHLEITDRSFNIVDIKPANMEELTEAITAAEFHPNSCNTFVYSSSKGTIRLCDMRASALCDRHSKLFEEPEDPSNRSFFSEIISSISDVKFSHSGRYMMTRDYLSVKIWDLNMENRPVETYQVHEYLRSKLCSLYENDCIFDKFECCWNGSDSVVMTGSYNNFFRMFDRNTKRDITLEASRENNKPRTVLKPRKVCASGKRKKDEISVDSLDFNKKILHTAWHPKENIIAVATTNNLYIFQDKVN [chain 1 V228A], the ratio to parent was ~0.85. Regarding chain 1 MAGAGGGNDIQWCFSQVKGAVDDDVAEADIISTVEFNHSGELLATGDKGGRVVIFQQEQENKIQSHSRGEYNVYSTFQSHEPEFDYLKSLEIEEKINKIRWLPQKNAAQFLLSTNDKTIKLWKISERDKRPEGYNLKEEDGRYRDPTTVTTLRVPVFRPMDLMVEASPRRIFANAHTYHINSISINSDYETYLSADDLRINLWHLEITDRSFNIVDIKPANMEELTEVITAAEFHPNSCNTFVYSSAKGTIRLCDMRASALCDRHSKLFEEPEDPSNRSFFSEIISSISDVKFSHSGRYMMTRDYLSVKIWDLNMENRPVETYQVHEYLRSKLCSLYENDCIFDKFECCWNGSDSVVMTGSYNNFFRMFDRNTKRDITLEASRENNKPRTVLKPRKVCASGKRKKDEISVDSLDFNKKILHTAWHPKENIIAVATTNNLYIFQDKVN [chain 1 S247A], the ratio to parent is ~1.5. On to chain 1 MAGAGGGNDIQWCFSQVKGAVDDDVAEADIISTVEFNHSGELLATGDKGGRVVIFQQEQENKIQSHSRGEYNVYSTFQSHEPEFDYLKSLEIEEKINAIRWLPQKNAAQFLLSTNDKTIKLWKISERDKRPEGYNLKEEDGRYRDPTTVTTLRVPVFRPMDLMVEASPRRIFANAHTYHINSISINSDYETYLSADDLRINLWHLEITDRSFNIVDIKPANMEELTEVITAAEFHPNSCNTFVYSSSKGTIRLCDMRASALCDRHSKLFEEPEDPSNRSFFSEIISSISDVKFSHSGRYMMTRDYLSVKIWDLNMENRPVETYQVHEYLRSKLCSLYENDCIFDKFECCWNGSDSVVMTGSYNNFFRMFDRNTKRDITLEASRENNKPRTVLKPRKVCASGKRKKDEISVDSLDFNKKILHTAWHPKENIIAVATTNNLYIFQDKVN [chain 1 K98A], for which the ratio to parent was ~0.65. For chain 1 MAGAGGGNDIQWCFSQVKGAVDDDVAEADIISTVEFNHSGELLATGDKGGRVVIFQQEQENKIQSHSRGEYNVYSTFQSHEPEFDYLKSLEIEEKINKIRWLPQKNAAQFLLSTNDKTIKLWKISERDKRPEGYNLKEEDGRYRDPTTVTTLRVPVFRPMDLMVEASPRRIFANAHTYHINSISINSDYETYLSADDLRINLWHLEITDRSFNIVDIKPANMEELTEVITAAEFHPNSCNTFVYSSSKGTIRLCDMRASALCDRHSKLFEEPEDPSNRSFFSAIISSISDVKFSHSGRYMMTRDYLSVKIWDLNMENRPVETYQVHEYLRSKLCSLYENDCIFDKFECCWNGSDSVVMTGSYNNFFRMFDRNTKRDITLEASRENNKPRTVLKPRKVCASGKRKKDEISVDSLDFNKKILHTAWHPKENIIAVATTNNLYIFQDKVN [chain 1 E283A], the ratio to parent is ~0.3. For chain 1 MAGAGGGNDIQWCFSQVKGAVDDDVAEADIISTVEFNHSGELLATGDKGGRVVIFQQEQENKIQSHSRGEYNVYSTFQSHEPEFDYLKSLEIEEKINKIRWLPQKNAAQFLLSTNDKTIKLWKISERDKRPEGYNLKEEDGRYRDPTTVTTLRVPVFRPMDLMVEASPRRIFANAHTYHINSISINSDYETYLSADDLRINLWHLEITDRSFNIVDIKPANMEEATEVITAAEFHPNSCNTFVYSSSKGTIRLCDMRASALCDRHSKLFEEPEDPSNRSFFSEIISSISDVKFSHSGRYMMTRDYLSVKIWDLNMENRPVETYQVHEYLRSKLCSLYENDCIFDKFECCWNGSDSVVMTGSYNNFFRMFDRNTKRDITLEASRENNKPRTVLKPRKVCASGKRKKDEISVDSLDFNKKILHTAWHPKENIIAVATTNNLYIFQDKVN [chain 1 L225A], the ratio to parent was ~0.2. In the case of chain 1 MAGAGGGNDIQWCFSQVKGAVDDDVAEADIISTVEFNHSGELLATGDKGGRVVIFQQEQENKIQSHSRGEYNVYSTFQSHEPEFDYLKSLEIEEKINKIRWLPQKNAAQFLLSTNDKTIKLWKISERDKRPEGYNLKEEDGRYRDPTTVTTLRVPVFRPMDLMVEASPRRIFANAHTYHIASISINSDYETYLSADDLRINLWHLEITDRSFNIVDIKPANMEELTEVITAAEFHPNSCNTFVYSSSKGTIRLCDMRASALCDRHSKLFEEPEDPSNRSFFSEIISSISDVKFSHSGRYMMTRDYLSVKIWDLNMENRPVETYQVHEYLRSKLCSLYENDCIFDKFECCWNGSDSVVMTGSYNNFFRMFDRNTKRDITLEASRENNKPRTVLKPRKVCASGKRKKDEISVDSLDFNKKILHTAWHPKENIIAVATTNNLYIFQDKVN [chain 1 N181A], the ratio to parent is ~1.1. As for chain 1 MAGAGGGNDIQWCFSQVKGAVDDDVAEADIISTVEFNHSGELLATGDKGGRVVIFQQEQENKIQSHSRGEYNVYSTFQSHEPEFDYLKSLEIEEKINKIRWLPQKNAAQFLLSTNDKTIKLWKISERDKRPEGYNLKEEDGRYRDPTTVTTLRVPVFRPMDLMVEASPRRIFANAHTYAINSISINSDYETYLSADDLRINLWHLEITDRSFNIVDIKPANMEELTEVITAAEFHPNSCNTFVYSSSKGTIRLCDMRASALCDRHSKLFEEPEDPSNRSFFSEIISSISDVKFSHSGRYMMTRDYLSVKIWDLNMENRPVETYQVHEYLRSKLCSLYENDCIFDKFECCWNGSDSVVMTGSYNNFFRMFDRNTKRDITLEASRENNKPRTVLKPRKVCASGKRKKDEISVDSLDFNKKILHTAWHPKENIIAVATTNNLYIFQDKVN [chain 1 H179A], the ratio to parent is ~0.8. In the case of chain 1 MAGAGGGNDIQWCFSQVKGAVDDDVAEADIISTVEFNHSGELLATGDKGGRVVIFQQEQENKIQSHSRGEYNVYSTFQSHEPEFDYLKSLEIEEKINKIRWLPQKNAAQFLLSTNDKTIKLWKISERDKRPEGYNLKEEDGRYRDPTTVTTLRVPVFRPMDLMVEASPRRIFANAHTYHINSISINSDYETYLSADDLRINLWHLEITDRSFNIVDIKPANMEELTEVITAAEFHPNSCNTFVYSSSKGTIRLCDMRASALCDRHSKLFEEPEDPSNRSFFSEIISAISDVKFSHSGRYMMTRDYLSVKIWDLNMENRPVETYQVHEYLRSKLCSLYENDCIFDKFECCWNGSDSVVMTGSYNNFFRMFDRNTKRDITLEASRENNKPRTVLKPRKVCASGKRKKDEISVDSLDFNKKILHTAWHPKENIIAVATTNNLYIFQDKVN [chain 1 S287A], the ratio to parent was ~1.5.
